Target: Cupid B-PTEN peptide

B1: PTEN protein of Dictyostelium (protein)
chain: MSNLLRVAVSKQKRRYQKNGYDLDLAYITDNIVAMGFPSEKVEGVFRNPMKDVQRFLDQYHKDHFKVYNLCSERVYDHSKFYGRVGYYPFDDHNAPQFEMIDAFCRDVDAWMKEDSKNIAVIHCKAGKGRTGLMICCWLMYCGMWKNTEDSLRFYAALRTYNQKGVTIPSQIRYVGYFGRSIRESIKYVPRNVTLKKIVLRPLPKEINLSEVQFNISVGKNCVFNSKEHNMNVVISKKKKTVVDKNKKDPKKKLTKENSEKNIDSQQQQQSQSSLSQSQQGQSSPNMQSLSASGTISSGSNVGTVNGNTLHQLGGSQFSLSDLADGNTIGNDEYISFEIGALSLAGDIRIEFTNKQDDRMFMFWVNTSFVQQLEIIPKSGLDKAHKDKNHKAFPEDFHVELTFDQLDQQQSHTTVVASAEEQTNNQHYPQSSNNVATSSSHHDNITVVASDAPQNNNNNNNLNSSNSNNATTTTTKNNISLASSQSNPVQQESNPSTTTQVSEENSAPKVEAEKIENSNASANDSETSSNSSS
phosphorylation response of proteins to cyclic AMP (antibody detection on SDS gels): they exhibited a much stronger initial phosphorylation response to cyclic AMP
